Test results taken from US20190177410A1.

Experiments:
[1] = target: T1, full length cynomolgus APLNR (MfAPLNR) (cynomolgus (Macaca fascicularis)); experiment: FACS, secondary antibody alone on HEK293/CRE-luc/MfAPLNR cells
T1 sequence: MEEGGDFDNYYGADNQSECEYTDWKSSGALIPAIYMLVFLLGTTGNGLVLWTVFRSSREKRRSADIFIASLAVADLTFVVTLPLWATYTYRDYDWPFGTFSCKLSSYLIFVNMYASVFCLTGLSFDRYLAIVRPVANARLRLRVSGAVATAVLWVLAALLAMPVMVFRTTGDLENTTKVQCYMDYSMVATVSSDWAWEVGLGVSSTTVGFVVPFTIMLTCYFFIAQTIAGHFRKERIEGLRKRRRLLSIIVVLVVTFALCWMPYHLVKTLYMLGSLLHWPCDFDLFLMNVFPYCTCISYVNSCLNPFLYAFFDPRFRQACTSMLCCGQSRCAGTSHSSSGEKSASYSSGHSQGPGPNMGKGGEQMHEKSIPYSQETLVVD

[2] = target: full-length human APLNR (hAPLNR) (human) (UniProt P35414); experiment: FACS, secondary antibody alone (4 ug/mL) on HEK293/CRE-luc/hAPLNR cells
[3] = target: full-length human APLNR (hAPLNR) (human) (UniProt P35414); experiment: FACS, secondary antibody alone on HEK293/CRE-luc/hAPLNR cells
[4] = target: T1, full length cynomolgus APLNR (MfAPLNR) (cynomolgus (Macaca fascicularis)); experiment: FACS, secondary antibody alone (4 ug/mL) on HEK293/CRE-luc/MfAPLNR cells

| Binding Ratio of Geom. Mean to Unstained Cells [1] [fold] | Binding Ratio of Geom. Mean to Unstained Cells [2] [fold] | Binding Ratio of Geom. Mean to Unstained Cells [3] [fold] | Binding Ratio of Geom. Mean to Unstained Cells [4] [fold] | Substance |
| --- | --- | --- | --- | --- |
| 2 | 2 | 2 | 2 | anti-human IgG antibody conjugated with Alexa 488 (secondary antibody alone) |
| – | 4 | – | 3 | anti-mouse IgG antibody conjugated with Alexa 647 (secondary antibody alone) |
